From paper PMC3927129 (Science (New York, N.Y.), 2011) come the findings set out here.

The data set deals with the molecule itself. The data set is described as follows: native MS.

B1: subunit K of the Enterococcus hirae rotary ATPase (K10 membrane ring) (natural protein)
chain: MMDYLITQNGGMVFAVLAMATATIFSGIGSAKGVGMTGEAAAALTTSQPEKFGQALILQLLPGTQGLYGFVIAFLIFINLGSDMSVVQGLNFLGASLPIAFTGLFSGIAQGKVAAAGIQILAKKPEHATKGIIFAAMVETYAILGFVISFLLVLNA
As usually defined, the stoichiometry N is a count of units in the complex or per binding partner. In the case of B1, the “stoichiometry N” value was found to be 10.
